According to PMC6453779, “The Different Effects of Substrates and Nucleotides on the Complex Formation of ABC Transporters” (Structure(London, England:1993), 2019):
One block for each molecule: values may come before it.

What was measured:
BtuCD = target: T1, BtuCD (Escherichia coli, UniProt P06611); assay: native mass spectrometry; assay type: binding; conditions: free BtuCD population beside BtuCD-F, C8E4
T1 construct: gene btuD; BtuC2D2 tetramer without BtuF; pET19b-BtuCD in E. coli BL21(DE3), LDAO purified, MS in C8E4; theoretical mass 128,839 Da; with Vitamin B12 import system permease protein BtuC
T1 sequence (P06611 1-249): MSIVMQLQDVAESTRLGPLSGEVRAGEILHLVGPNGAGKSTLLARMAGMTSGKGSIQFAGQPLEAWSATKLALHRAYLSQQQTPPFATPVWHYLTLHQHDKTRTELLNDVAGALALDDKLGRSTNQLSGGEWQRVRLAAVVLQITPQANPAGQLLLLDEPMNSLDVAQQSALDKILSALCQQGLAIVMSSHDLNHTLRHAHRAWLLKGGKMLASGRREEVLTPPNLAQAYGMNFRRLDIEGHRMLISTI
T1 sequence (P06609 1-326 partner): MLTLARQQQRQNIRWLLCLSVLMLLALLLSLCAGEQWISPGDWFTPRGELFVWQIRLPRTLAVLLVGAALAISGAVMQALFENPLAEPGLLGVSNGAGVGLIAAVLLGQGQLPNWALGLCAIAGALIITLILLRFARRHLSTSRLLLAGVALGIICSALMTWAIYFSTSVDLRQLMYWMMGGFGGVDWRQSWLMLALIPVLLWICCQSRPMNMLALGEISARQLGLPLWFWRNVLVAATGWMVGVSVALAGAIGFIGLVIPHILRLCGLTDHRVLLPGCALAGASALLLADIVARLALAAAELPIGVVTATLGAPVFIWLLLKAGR

BtuCD-F = target: T2, BtuCD-F (Escherichia coli, UniProt P06611); assay: native mass spectrometry; assay type: binding; conditions: then BtuF, C8E4
T2 construct: gene btuD; BtuC2D2-F complex; BtuCD from pET19b-BtuCD in E. coli BL21(DE3), LDAO purified, MS in C8E4; BtuF residues 23-266; theoretical mass 158,253 Da; with Vitamin B12 import system permease protein BtuC
T2 sequence (P06611 1-249): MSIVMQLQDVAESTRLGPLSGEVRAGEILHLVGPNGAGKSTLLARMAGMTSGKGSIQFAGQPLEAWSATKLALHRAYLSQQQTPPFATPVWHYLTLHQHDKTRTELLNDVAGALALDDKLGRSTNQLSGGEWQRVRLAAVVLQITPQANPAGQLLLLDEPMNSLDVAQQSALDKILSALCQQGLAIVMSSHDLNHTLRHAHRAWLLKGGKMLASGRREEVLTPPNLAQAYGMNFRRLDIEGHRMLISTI
T2 sequence (P06609 1-326 partner): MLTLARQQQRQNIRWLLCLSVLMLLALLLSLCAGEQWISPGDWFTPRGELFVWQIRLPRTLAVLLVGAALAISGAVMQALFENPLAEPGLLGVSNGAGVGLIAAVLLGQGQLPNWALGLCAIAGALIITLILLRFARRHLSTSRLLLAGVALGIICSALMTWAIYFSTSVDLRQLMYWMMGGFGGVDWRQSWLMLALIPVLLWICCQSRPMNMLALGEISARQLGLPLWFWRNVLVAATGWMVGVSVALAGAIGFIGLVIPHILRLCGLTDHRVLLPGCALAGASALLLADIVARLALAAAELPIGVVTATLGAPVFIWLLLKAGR
T2 sequence (P37028 23-266 partner): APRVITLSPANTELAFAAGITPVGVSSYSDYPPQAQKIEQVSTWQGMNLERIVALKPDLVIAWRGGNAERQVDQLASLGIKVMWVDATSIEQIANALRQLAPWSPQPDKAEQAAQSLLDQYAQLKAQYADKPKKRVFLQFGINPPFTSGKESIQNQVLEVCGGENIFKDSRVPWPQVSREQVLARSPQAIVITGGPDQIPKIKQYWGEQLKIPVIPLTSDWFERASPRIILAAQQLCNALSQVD

[1] = target: T3, ModBC-A⋅MoO4^2− (nucleotide row) (Archaeoglobus fulgidus, UniProt O30144); assay: native mass spectrometry; assay type: binding; conditions: 10 uM ATP and MgCl2 added to ModBC, ModA preloaded with molybdate; one and two ADP bound; C8E4
T3 construct: gene wtpC; nucleotide site on the NBDs (ModC); with Molybdate/tungstate transport system permease protein WtpB
T3 sequence (O30142 32-342 partner, one chain of several): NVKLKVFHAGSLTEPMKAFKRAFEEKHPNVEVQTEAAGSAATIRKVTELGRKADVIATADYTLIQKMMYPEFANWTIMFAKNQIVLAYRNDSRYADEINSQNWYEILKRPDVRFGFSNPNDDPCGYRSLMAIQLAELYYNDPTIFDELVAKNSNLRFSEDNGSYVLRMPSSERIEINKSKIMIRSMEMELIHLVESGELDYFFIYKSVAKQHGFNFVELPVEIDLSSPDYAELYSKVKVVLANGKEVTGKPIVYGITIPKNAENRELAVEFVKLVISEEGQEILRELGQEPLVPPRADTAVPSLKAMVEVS

[2] = target: T4, ModB, transmembrane subunit of ModBC of Archaeoglobus fulgidus (A. fulgidus, UniProt O30143 1-261); assay: native MS; co-expressed and co-purified transporter alone, buffer exchanged into 200 mM ammonium acetate with 0.5% C8E4; conditions: both partners purified
T4 construct: ModB, transmembrane subunit of the molybdate importer ModBC, A. fulgidus; construct pET19b-ModBC; source: E. coli BL21(DE3), co-purified as ModBC from membranes (DDM and C12E8, HisTrap, SEC)
T4 sequence: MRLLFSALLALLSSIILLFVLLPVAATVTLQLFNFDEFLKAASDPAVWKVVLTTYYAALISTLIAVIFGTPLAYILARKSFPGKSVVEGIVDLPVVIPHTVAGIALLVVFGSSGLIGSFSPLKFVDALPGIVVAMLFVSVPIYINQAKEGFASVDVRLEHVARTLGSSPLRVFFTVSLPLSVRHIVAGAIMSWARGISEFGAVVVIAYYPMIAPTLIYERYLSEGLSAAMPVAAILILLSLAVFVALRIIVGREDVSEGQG

[3] = target: T5, vitamin B12 transporter BtuCD (BtuC2D2) of Escherichia coli (E. coli, UniProt P06609 1-326; P06611 1-249); assay: native MS; BtuF and BtuCD incubated in a 1:2 molar ratio (BtuF:BtuCD) in 200 mM ammonium acetate with 0.5% C8E4; without ligand, or with 2 mM vitamin B12, dicyanocobinamide or vitamin B9 added to BtuF before buffer exchange, or 5 mM ATP/MgCl2 or 5 mM AMP-PNP added to BtuCD before buffer exchange, or vitamin B12 and ATP together; conditions: both partners purified
T5 construct: BtuC, transmembrane subunit of the vitamin B12 importer BtuCD, E. coli; construct pET19b-BtuCD, gift from Kaspar Locher; Purified on a HisTrap column from pET19b-BtuCD; also called tetrameric transporter; source: E. coli BL21(DE3), purified from membranes (LDAO, HisTrap, Superdex 200 SEC); copies: 2 + 2
T5 sequence 1: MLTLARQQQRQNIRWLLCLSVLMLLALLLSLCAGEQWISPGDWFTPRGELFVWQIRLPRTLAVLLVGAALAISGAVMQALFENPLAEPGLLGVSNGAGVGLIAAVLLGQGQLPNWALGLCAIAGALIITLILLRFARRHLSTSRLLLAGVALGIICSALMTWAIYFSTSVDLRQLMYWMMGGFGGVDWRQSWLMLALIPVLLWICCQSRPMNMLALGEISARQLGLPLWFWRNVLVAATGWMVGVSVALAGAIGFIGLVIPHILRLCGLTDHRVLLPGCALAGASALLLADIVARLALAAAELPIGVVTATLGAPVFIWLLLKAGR
T5 sequence 2: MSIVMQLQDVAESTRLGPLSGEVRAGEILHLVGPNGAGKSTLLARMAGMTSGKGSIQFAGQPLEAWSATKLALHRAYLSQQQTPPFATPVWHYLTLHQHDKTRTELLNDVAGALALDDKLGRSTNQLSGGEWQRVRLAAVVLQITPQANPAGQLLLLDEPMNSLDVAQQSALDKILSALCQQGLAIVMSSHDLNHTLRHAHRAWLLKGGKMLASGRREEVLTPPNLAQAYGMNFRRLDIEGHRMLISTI

[4] = target: T6, BtuC, transmembrane subunit of BtuCD of Escherichia coli (E. coli, UniProt P06609 1-326); assay: native MS; co-expressed and co-purified transporter alone, buffer exchanged into 200 mM ammonium acetate with 0.5% C8E4; conditions: both partners purified
T6 construct: BtuC, transmembrane subunit of the vitamin B12 importer BtuCD, E. coli; construct pET19b-BtuCD; source: E. coli BL21(DE3), co-purified as BtuCD from membranes (LDAO, HisTrap, SEC)
T6 sequence: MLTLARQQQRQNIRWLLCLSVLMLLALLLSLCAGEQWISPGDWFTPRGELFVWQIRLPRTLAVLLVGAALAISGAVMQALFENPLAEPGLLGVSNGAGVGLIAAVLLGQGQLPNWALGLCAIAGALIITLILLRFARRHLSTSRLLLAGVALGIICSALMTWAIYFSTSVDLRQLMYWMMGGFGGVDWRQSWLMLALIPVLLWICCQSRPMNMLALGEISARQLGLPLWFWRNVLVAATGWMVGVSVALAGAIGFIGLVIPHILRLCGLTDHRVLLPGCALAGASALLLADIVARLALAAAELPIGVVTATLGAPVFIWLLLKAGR

Molecule: Nc1ncnc2c1ncn2[C@@H]1O[C@H](COP(=O)(O)OP(=O)(O)NP(=O)(O)O)[C@@H](O)[C@H]1O [AMP-PNP, Adenosine 5’-(β,γ-imido)triphosphate]
- bound species by mass (BtuCD; 5 mM AMP-PNP added before buffer exchange): BtuCD was bound to the two different nucleotides in a similar fashion
- observed mass of complex (BtuCD-F; 5 mM AMP-PNP added to BtuCD before buffer exchange, two bound): apo-BtuCD-F as well as a population assigned to BtuCD-F⋅2AMP-PNP

Molecule: Nc1ncnc2c1ncn2[C@@H]1O[C@H](COP(=O)(O)OP(=O)(O)O)[C@@H](O)[C@H]1O [ADP]
- observed mass of complex [1]: an apo form and the species bound to one and two ADP molecules
- bound species by mass (BtuCD; 5 mM ATP and 5 mM MgCl2 added before buffer exchange): The presence of ADP-bound species of both BtuCD-F and BtuCD are observed
- observed mass of complex (BtuCD-F; 5 mM ATP and 5 mM MgCl2 added to BtuCD before buffer exchange, one and two ADP bound): two nucleotide-bound states with one and two ADP molecules bound

- binding result [2]: binds
B1: ModC, nucleotide binding subunit of ModBC of Archaeoglobus fulgidus (natural protein, A. fulgidus)
chain: MFLKVRAEKRLGNFRLNVDFEMGRDYCVLLGPTGAGKSVFLELIAGIVKPDRGEVRLNGADITPLPPERRGIGFVPQDYALFPHLSVYRNIAYGLRNVERVERDRRVREMAEKLGIAHLLDRKPARLSGGERQRVALARALVIQPRLLLLDEPLSAVDLKTKGVLMEELRFVQREFDVPILHVTHDLIEAAMLADEVAVMLNGRIVEKGKLKELFSAKNGEVAEFLSARNLLLKVSKILD
notes: construct pET19b-ModBC; source: E. coli BL21(DE3), co-purified as ModBC from membranes (DDM and C12E8, HisTrap, SEC)

- uncomplexed BtuCD relative to BtuCD-F (100%), with dicyanocobinamide [3]: 44%
- uncomplexed BtuCD relative to BtuCD-F (100%), with vitamin B9 [3]: 15%
- uncomplexed BtuCD relative to BtuCD-F (100%), with vitamin B12 [3]: 45%
- uncomplexed BtuCD relative to BtuCD-F, no substrate [3]: 10%
- uncomplexed BtuCD relative to BtuCD-F, with AMP-PNP [3]: 43%
- uncomplexed BtuCD relative to BtuCD-F, with ATP [3]: 40%
B2: periplasmic vitamin B12 substrate-binding protein BtuF of Escherichia coli (aa 23-266) (natural protein, E. coli, UniProt P37028 23-266, looked up)
chain: APRVITLSPANTELAFAAGITPVGVSSYSDYPPQAQKIEQVSTWQGMNLERIVALKPDLVIAWRGGNAERQVDQLASLGIKVMWVDATSIEQIANALRQLAPWSPQPDKAEQAAQSLLDQYAQLKAQYADKPKKRVFLQFGINPPFTSGKESIQNQVLEVCGGENIFKDSRVPWPQVSREQVLARSPQAIVITGGPDQIPKIKQYWGEQLKIPVIPLTSDWFERASPRIILAAQQLCNALSQVD
notes: also called SBP; source: E. coli BL21(DE3), purified (HisTrap, SEC; same protocol as ModA, final buffer with 10 mM DTT)

- binding result [4]: binds
B3: BtuD, nucleotide binding subunit of BtuCD of Escherichia coli (natural protein, E. coli)
chain: MSIVMQLQDVAESTRLGPLSGEVRAGEILHLVGPNGAGKSTLLARMAGMTSGKGSIQFAGQPLEAWSATKLALHRAYLSQQQTPPFATPVWHYLTLHQHDKTRTELLNDVAGALALDDKLGRSTNQLSGGEWQRVRLAAVVLQITPQANPAGQLLLLDEPMNSLDVAQQSALDKILSALCQQGLAIVMSSHDLNHTLRHAHRAWLLKGGKMLASGRREEVLTPPNLAQAYGMNFRRLDIEGHRMLISTI
notes: construct pET19b-BtuCD; source: E. coli BL21(DE3), co-purified as BtuCD from membranes (LDAO, HisTrap, SEC)
